This test addresses C7LLO (CEA-binding Fn3 - listeriolysin O fusion protein).

B1: carcinoembryonic antigen (CEA) on HT-1080(CEA) and HT-29 cells (other, human, UniProt P06731 35-685, looked up)
chain: KLTIESTPFNVAEGKEVLLLVHNLPQHLFGYSWYKGERVDGNRQIIGYVIGTQQATPGPAYSGREIIYPNASLLIQNIIQNDTGFYTLHVIKSDLVNEEATGQFRVYPELPKPSISSNNSKPVEDKDAVAFTCEPETQDATYLWWVNNQSLPVSPRLQLSNGNRTLTLFNVTRNDTASYKCETQNPVSARRSDSVILNVLYGPDAPTISPLNTSYRSGENLNLSCHAASNPPAQYSWFVNGTFQQSTQELFIPNITVNNSGSYTCQAHNSDTGLNRTTVTTITVYAEPPKPFITSNNSNPVEDEDAVALTCEPEIQNTTYLWWVNNQSLPVSPRLQLSNDNRTLTLLSVTRNDVGPYECGIQNELSVDHSDPVILNVLYGPDDPTISPSYTYYRPGVNLSLSCHAASNPPAQYSWLIDGNIQQHTQELFISNITEKNSGLYTCQANNSASGHSRTTVKTITVSAELPKPSISSNNSKPVEDKDAVAFTCEPEAQNTTYLWWVNGQSLPVSPRLQLSNGNRTLTLFNVTRNDARAYVCGIQNSVSANRSDPVTLDVLYGPDTPIISPPDSSYLSGANLNLSCHSASNPSPQYSWRINGIPQQHTQVLFIAKITPNNNGTYACFVSNLATGRNNSIVKSITVSASGTSPGLSA
In general, Kd refers to the constant that tells how readily two partners part at equilibrium. High values mean lower affinity, low ones higher affinity. Consider B1, for which the affinity, expressed as Kd, was 4.09 nM.

For the origin of these results see patent publication US20140080766A1 (MIT, published 2014).
